The values that follow are results of earlier work, collected in publication PMC2904412.

A word on the Kd: it is the free concentration of one partner at which half of the binding sites on the other are occupied at equilibrium, for simple one-to-one binding.

The target of the series is thrombomodulin (Homo sapiens) (UniProt P07204).

thrombin (from UniProt P00734): the Kd is below 1 nM.
